Assay results published in paper doi:10.1101/2023.04.15.537002, “Identification of merozoite secreted repertoire and immuno-pharmacological inhibition of a novel host-parasite interaction to block malarial infection” (bioRxiv, 2023).

T1: recombinant PfRhopH3 C-terminal fragment (PfRhopH3C; 617-865 aa) (Plasmodium falciparum, UniProt Q8I395 617-865)
T1 construct: RhopH3 (high molecular weight rhoptry protein 3) of Plasmodium falciparum, C-terminal portion, residues 617-865 (747 bp); also called rPfRhopH3C; rRhopH3C; source: recombinant, codon-optimized gene in pMTSAra, induced by L-arabinose, purified (Ni-NTA)
T1 sequence: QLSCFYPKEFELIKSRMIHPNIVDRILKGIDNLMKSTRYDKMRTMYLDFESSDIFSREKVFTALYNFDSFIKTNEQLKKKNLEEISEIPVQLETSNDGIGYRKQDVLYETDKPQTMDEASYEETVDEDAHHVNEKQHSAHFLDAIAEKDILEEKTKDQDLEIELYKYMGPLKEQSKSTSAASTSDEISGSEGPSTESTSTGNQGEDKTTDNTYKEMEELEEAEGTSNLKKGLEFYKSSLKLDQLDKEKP

B1: recombinant human 14-3-3[…] (eta), full length (246 aa) (natural protein, UniProt Q04917 1-246, looked up)
chain: MGDREQLLQRARLAEQAERYDDMASAMKAVTELNEPLSNEDRNLLSVAYKNVVGARRSSWRVISSIEQKTMADGNEKKLEKVKAYREKIEKELETVCNDVLSLLDKFLIKNCNDFQYESKVFYLKMKGDYYRYLAEVASGEKKNSVVEASEAAYKEAFEISKEQMQPTHPIRLGLALNFSVFYYEIQNAPEQACLLAKQAFDDAIAELDTLNEDSYKDSTLIMQLLRDNLTLWTSDQQDEEAGEGN
modifications: labelled with amine-reactive dye NT-647 NHS (for MST only)
notes: human 14-3-3 protein eta, gene ID YWHAH, full length, 246 aa (738 bp); the discussion names it eta; also called 14-3-3[…] full length; r14-3-3[…]; source: recombinant, codon-optimized gene in pET-28a(+), induced by IPTG, purified (Ni-NTA)
B2: recombinant 14-3-3[…] Target Binding Domain (TBD; 94-246 aa) (domain or fragment, human, UniProt Q04917 94-246, looked up)
chain: ETVCNDVLSLLDKFLIKNCNDFQYESKVFYLKMKGDYYRYLAEVASGEKKNSVVEASEAAYKEAFEISKEQMQPTHPIRLGLALNFSVFYYEIQNAPEQACLLAKQAFDDAIAELDTLNEDSYKDSTLIMQLLRDNLTLWTSDQQDEEAGEGN
notes: also called 14-3-3[…] TBD; source: recombinant, PCR-amplified into pMTSAra, induced by L-arabinose, purified (Ni-NTA)

Key:
[1] = molecular target: T1, recombinant PfRhopH3 C-terminal …; test: MST; 14-3-3[…] (10 uM) labelled with NT-647 NHS, titrated with different concentrations of PfRhopH3C; details: both partners purified
[2] = molecular target: T1, recombinant PfRhopH3 C-terminal …; test: ELISA; PfRhopH3C (200 ng) coated overnight; overlaid with 14-3-3[…] TBD or full length; detected with anti-14-3-3[…] antibodies, O.D.450; details: both partners purified

| Binder | Kd [1] [nM] | binding result [2] |
| --- | --- | --- |
| B1 | 66 |  |
| B2 |  | binds |
